{
  "source": "paper PMC8391295",
  "about": "“Unraveling Human AQP5-PIP Molecular Interaction and Effect on AQP5 Salivary Glands Localization in SS Patients” (Cells, 2021)",
  "target": "T1, full-length His-tagged AQP5 (human, UniProt P55064 1-265)",
  "T1 construct": "aquaporin-5 (AQP5), human, full-length construct with His-tag; also called FL-AQP5; full-length AQP5; source: Pichia pastoris X-33, purified (solubilised in NG, Resource S, Superdex 200)",
  "T1 sequence (P55064 whole entry)": "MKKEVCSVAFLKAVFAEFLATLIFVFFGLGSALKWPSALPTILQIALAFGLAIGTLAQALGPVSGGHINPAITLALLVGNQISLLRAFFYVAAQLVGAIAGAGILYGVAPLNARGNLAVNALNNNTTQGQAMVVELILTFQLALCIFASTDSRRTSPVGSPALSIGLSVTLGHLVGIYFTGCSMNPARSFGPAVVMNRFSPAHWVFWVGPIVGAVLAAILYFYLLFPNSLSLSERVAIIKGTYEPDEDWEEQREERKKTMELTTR",
  "experiment": "MST; labeled PIP at 42 nM, 1:1 dilution series of AQP5; 20 mM phosphate buffer pH 7.5, 100 mM NaCl, 0.8% NG; Hill equation fit on total monomeric AQP5 concentration; triplicates",
  "conditions": "both partners purified",
  "data": [
    {"binder": "mature C-terminal His-tag PIP (prolactin-inducible protein, residues 29-146) (natural protein, human, UniProt P12273 29-146, looked up, non homogeneously glycosylated; labeled with an amine-reactive dye (Monolith NT Protein RED-NHS Labeling Kit) in the MST experiments, also called recombinant PIP; purified PIP; source: Pichia pastoris, secreted into the media, purified (HisTrap HP, Superdex 200); not shown: His6 (thrombin-cleavable), C-terminal, kept) QDNTRKIIIKNFDIPKSVRPNDEVTAVLAVQTELKECMVVKTYLISSIPLQGAFNYKYTACLCDDNPKTFYWDFYTNRTVQIAAVVDVIRELGICPDDAAVIPIKNNRFYTIEILKVE", "values": [
      {"measurement": "Kd", "value": 570, "unit": "nM"}
    ]}
  ]
}
